Measurements taken from patent publication US20160347831A1 (F HOFFMAN LA ROCHE, published 2016).

T1: Aβ fragment 29-40 (human)
T1 peptide: GAIIGLMVGGVV

T2: Aβ fragment 1-16 (human)
T2 construct: also called Aβ1-16; Aβ16
T2 peptide: DAEFRHDSGYEVHHQK

B1: Aβ fragment 16-35 (peptide)
peptide: KLVFFAEDVGSNKGAIIGLM
notes: this fragment is not in the list of fragments tested (1-16, 10-20, 15-25, 22-35, 29-40); also called AP 16-35
B2: VHH R3VQ (VHH)
VHH: EVQLQASGGGLVQTGDSLRLSCADSGSTFRNYNIGWFRQTPGQAREFVAAVSRTGISTHVADSLQGRFTISRDNAKNTVYLQMNSLKPEDTAVYSCAAGRPGVGAVNRAMDYDYWGQGTQVTVSS
notes: Expressed with a His tag or a Strep tag; also called R3VQ(His)-NH2 1; R3VQ-NH2 1; not shown: 6-Histidine tag (pET23) or Strep tag (pASK IBA2) from the vector
B3: R3VQ(His)-N-(DOTA/Gd) conjugate 2c (VHH)
VHH: B2 VHH
modifications: DOTA/Gd randomly distributed on lysine residues; average Gd/protein (1) 2 (3)
notes: Non-site-specific conjugate; not shown: 6-Histidine tag from pET23
B4: R3VQ(His)-N-(DOTA/Gd) conjugate 2d (VHH)
VHH: B2 VHH
modifications: DOTA/Gd randomly distributed on lysine residues; average Gd/protein (1) 2 (3)
notes: as for B3

Legend:
[1] = target: B2; test: competition ELISA, soluble Aβ fragment against antigen-coated plate
Procedure: (§1) The binding affinity of VHHs was determined as previously described (Friguet B. et al., 1985, Immunol Methods, 77:305-19). Briefly, various concentrations of Aβ peptides (A13 fragments 1-16, 10-20, 15-25, 22-35 and 29-40) were incubated in solution overnight at 4° C. with a known quantity of VHH until equilibrium was reached. The VHH concentration used was determined by preliminary ELISA calibrations. Each mixture (100 μl) was transferred to a well of a microtiter plate previously coated with antigen and was incubated for 20 min at 4° C. The plates were washed with buffer 0.1% Tween 20 in PBS and bound VHHs were detected by adding beta-galactosidase-conjugated goat anti-rabbit Igs (Biosys, Compiegne, France) and 4-methylumbelliferyl […] (Sigma). Fluorescence was read (Fluoroskan, Labsystem, Finland) at 460 nm, after excitation at 355 nm. KD was estimated from the slope of the regression curve obtained by plotting the reciprocal of the fraction of bound antibody versus the reciprocal of the molar concentration of antigen.

[2] = target: T1, Aβ fragment 29-40; test: competition ELISA with soluble Aβ fragments
Procedure: as §1

[3] = target: T2, Aβ fragment 1-16; test: competition ELISA with soluble Aβ fragments
Procedure: as §1

[4] = target: T3, A-beta 42 peptide (Aβ42) (human); test: competition ELISA in solution (Friguet method)
T3 construct: Synthetic peptide (Bachem); incubated to give the fibrillar form for immunisation; also called Aβ1-42; fibrillar synthetic Aβ42 peptide
Procedure: as §1

[5] = target: T4, A-beta 40 (Aβ40) (human); test: ELISA on biotinylated Aβ40 (or Aβ42)
T4 construct: ELISA methods say 'A-beta 40 or A-beta 42 (preferably A-beta 40)'; also called Aβ1-40; biotinylated A-beta 40
T4 sequence (peptide, as listed by the source): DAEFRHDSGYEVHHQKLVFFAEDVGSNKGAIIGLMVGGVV

T3 sequence (peptide, as listed by the source): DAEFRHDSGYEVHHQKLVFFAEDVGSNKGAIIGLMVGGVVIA

Binder: B1
IC50 [1]: 16 nM

Binder: B2
binding result [2]: no binding | binding result [3]: no binding | Kd [4]: 17 nM

Binder: B3
binding in ELISA compared to the original VHH 1 [5]: ~10%

Binder: B4
binding in ELISA compared to the original VHH 1 [5]: ~10%
